According to article PMC10653858 (mBio, 2023):

B1: histone H3 peptide P1 (15-mer, residues 3-17), NH2-TKQTARKSTGGKAPR-COOH (peptide)
peptide: H-TKQTARKSTGGKAPR-OH
notes: also called 15-mer peptide; (3-17)-N-terminal H3 P1 peptide

Molecular target: LegAS4 (84–532aa), RomA homolog of L. pneumophila strain Philadelphia (L. pneumophila strain Philadelphia, UniProt Q5ZUS4 84-532)
Experiment: crystal structure
Details: both partners purified

Binder | binding result
B1 | binds
H-ARTKQTARKSTG-OH (also called 12-mer peptide) [histone H3 peptide P2 (12-mer, residues 1-12), NH2-ARTKQTARKSTG-COOH] | binds
